Assay results: publication PMC5758902
Residue numbers refer to the chain shown, from its start.

B1: 30mer G:T heteroduplex (dsDNA)
DNA 1: AGCTGCCAGGCACCAGTGTCAGCGTCCTAT
DNA 2: ATAGGACGCTGACACTGGTGCTTGGCAGCT
B2: 30mer homoduplex (dsDNA)
DNA 1: B1 DNA 1
DNA 2: B1 DNA 2 with T22C
B3: 31mer G:T heteroduplex (dsDNA)
DNA 1: GCGATGTTGCTGACGCTGGTGCCTGGCAGCT
DNA 2: AGCTGCCAGGCACCAGTGTCAGCAACATCGC

How the values were obtained:
NgoS (MutS) [1] = molecular target: T1, NgoS (MutS) (Neisseria gonorrhoeae, UniProt Q5F5J4 1-814); assay: DLS
T1 sequence: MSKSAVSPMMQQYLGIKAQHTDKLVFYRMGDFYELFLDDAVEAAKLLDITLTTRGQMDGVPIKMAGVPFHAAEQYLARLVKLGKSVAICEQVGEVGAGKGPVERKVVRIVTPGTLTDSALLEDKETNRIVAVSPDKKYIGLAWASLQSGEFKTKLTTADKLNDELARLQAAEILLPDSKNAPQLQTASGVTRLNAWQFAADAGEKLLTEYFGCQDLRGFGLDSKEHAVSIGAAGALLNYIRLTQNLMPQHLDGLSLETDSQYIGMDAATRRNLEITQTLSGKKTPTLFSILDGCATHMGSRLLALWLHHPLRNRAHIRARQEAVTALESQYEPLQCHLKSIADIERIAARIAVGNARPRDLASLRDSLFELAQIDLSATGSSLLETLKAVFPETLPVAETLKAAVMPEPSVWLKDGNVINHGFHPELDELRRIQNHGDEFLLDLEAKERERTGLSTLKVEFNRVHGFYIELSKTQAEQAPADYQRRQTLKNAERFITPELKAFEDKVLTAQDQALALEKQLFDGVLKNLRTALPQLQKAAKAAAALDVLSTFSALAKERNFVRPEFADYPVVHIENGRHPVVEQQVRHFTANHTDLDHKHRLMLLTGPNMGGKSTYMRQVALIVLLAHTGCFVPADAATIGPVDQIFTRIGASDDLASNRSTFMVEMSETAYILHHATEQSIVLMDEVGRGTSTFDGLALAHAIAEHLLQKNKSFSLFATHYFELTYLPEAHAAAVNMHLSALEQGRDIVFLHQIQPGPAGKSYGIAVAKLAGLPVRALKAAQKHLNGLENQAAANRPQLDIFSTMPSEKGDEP

NgoS E687A = molecular target: T2, NgoS E687A (Neisseria gonorrhoeae, UniProt Q5F5J4 1-814, E687A); assay: fluorescence anisotropy
T2 sequence: T1 sequence with E687A

NgoS (MutS) [2] = molecular target: T1, NgoS (MutS); assay: fluorescence anisotropy

Binder	binding result (NgoS (MutS) [1])	binding result (NgoS E687A)	binding result (NgoS (MutS) [2])
B1	binds		
B2	binds		
B3		binds	binds
